Test system: Saccharomyces cerevisiae PS128 hsf1 delta, HSF1(1-493) fusion
Test: growth estimate (transactivation domain function in HSF1 fusion, heat-shock survival) (a.u. (slope of normalised read count over time)); higher = stronger growth at 37°C, i.e. more transactivation activity
Settings: library: design library
How it was run: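 Designed transactivation-domain oligos were fused to truncated yeast HSF1 (amino acids 1–493) and expressed in an hsf1-deleted yeast strain. Cells were replica-plated onto –trp 5-FOA plates and incubated at 30°C or 37°C for 0, 2, 4, 6 and 8 days. Inserts were PCR-amplified and Illumina MiSeq-sequenced as six barcoded replicates from one experiment. Growth estimate is the slope of a robust linear fit over time of read counts normalised to sample totals and starting count.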

Row | Sequence | growth estimate
1 | TMDDVYPYLFDD | 0.27
2 | PEFPGIELQELQELQAPLQQ | < -0.25
3 | VAKDIWEELLSEDL | 6.26
4 | PFPDTADDFLKWWRSEEAQ | 0.6
5 | DLDESADYIFETTE | -0.127
6 | PFPDTQDDFLKWWRSEEAR | -0.248
7 | DFDLDMAGDFDLDMLG | 11.3
8 | EDDDEFSLWKSML | < -0.25
9 | DELSWAIELLEKDG | < -0.25
10 | EFNDLLDLDFILSN | 1.51
11 | PFPDTQDGFLKWWRSEEAQ | < -0.25
12 | MLSSHGFSVDTSALLDGFSP | -0.227
13 | DLDESWDYRFETTE | -0.247
14 | EDDDPFSLWDSML | 2.41
15 | DELSWIIELLEKDP | 3.41
16 | EDDDEFSGWDSML | 0.0815
17 | AFDLDMLGDFDLDMLG | 1.88
18 | DELSWIIEGLEKDG | < -0.25
19 | PFPDTQDDFLKWWRSEEAK | -0.25
20 | DELSWIIRLLEKDG | < -0.25
21 | EFNDLLDLDFILRN | 5.09
22 | VADDIWEELLSEAL | 5.63
23 | MLSSHGFSVDTSALPDLFSP | -0.23
24 | VADDIWEELLSADL | 3.11

Row | Sequence | growth estimate
25 | LFDYDFGFGNDFA | 1.76
26 | AFPDTQDDFLKWWRSEEAQ | -0.0486
27 | TADDVYNYLFDD | 0.0678
28 | DELSWIIELLEADG | 1.64
29 | EDDDEFSLADSML | -0.236
30 | PEFPGIELQELQELQALLQG | -0.0522
31 | VADDPWEELLSEDL | -0.214
32 | TMDDVYNYLPDD | < -0.25
33 | EDDDEFSLWDSMR | -0.239
34 | EDLYKILWSDVY | -0.0738
35 | PEFRGIELQELQELQALLQQ | -0.124
36 | AFDYDFLFGNDFA | 10.5
37 | EFNDLLDPDFILSN | -0.0736
38 | TMDDVYNYKFDD | < -0.25
39 | MLSSHGFSRDTSALLDLFSP | < -0.25
40 | EGNDLLDLDFILSN | 0.62
41 | MLSSHGFSVDTSRLLDLFSP | -0.171
42 | PEFPGIELQELQELKALLQQ | -0.22
43 | LFDYDFLFGNDFP | 15.5
44 | DFDLDMPGDFDLDMLG | 6.81
45 | EDLYSILWSDVG | -0.0353
46 | LFAYDFLFGNDFA | 0.948
47 | EFNDLLDLDFPLSN | 1.64
48 | DLDESWDRIFETTE | < -0.25

Row | Sequence | growth estimate
49 | PFPDTQDDRLKWWRSEEAQ | -0.109
50 | VADDGWEELLSEDL | < -0.259
51 | DFDLDMLGDFDLDMLR | 6.97
52 | EFNDLLDLDFIGSN | 2.81
53 | DLDESWDKIFETTE | -0.06
54 | DLDGSWDYIFETTE | 0.41
55 | MLSGHGFSVDTSALLDLFSP | -0.0767
56 | EFNDLLDRDFILSN | -0.0427
57 | MLSSHGRSVDTSALLDLFSP | -0.248
58 | MLSSHGFSVDTKALLDLFSP | -0.145
59 | DELSWIKELLEKDG | 0.278
60 | VGDDIWEELLSEDL | 1.59
61 | EDDDEFSLWGSML | 1.19
62 | MLSSHGFSVDTPALLDLFSP | -0.228
63 | VKDDIWEELLSEDL | -0.23
64 | GDLYSILWSDVY | -0.212
65 | EFNDLLDLGFILSN | -0.244
66 | PFPATQDDFLKWWRSEEAQ | < -0.25
67 | TMDDVYNYLFGD | 1.05
68 | PEFPGIELQELQELQALLQA | -0.246
69 | EFNDLLDLKFILSN | -0.169
70 | TGDDVYNYLFDD | -0.0152
71 | EDDREFSLWDSML | -0.175
72 | EFNDLLDLDFILAN | < -0.25

Row | Sequence | growth estimate
73 | PFPDTQDDFLKWWRSEEAG | 0.0636
74 | MLSSHGFGVDTSALLDLFSP | -0.0322
75 | PFPDTQPDFLKWWRSEEAQ | -0.22
76 | EDDDEFSLWDGML | 0.875
77 | EDDDEFSLWDRML | -0.15
78 | EFNDPLDLDFILSN | -0.119
79 | EDLYSILWSDVK | 0.0539
80 | EDDDEFSLWDSMP | -0.236
81 | DELSWRIELLEKDG | -0.216
82 | DFDLDMRGDFDLDMLG | 1.6
83 | TPDDVYNYLFDD | < -0.25
84 | DFDLPMLGDFDLDMLG | 5.28
85 | DLDESWDYIFETTE | 1.92
86 | PEFPGIELQELQELPALLQQ | < -0.25
87 | MGSSHGFSVDTSALLDLFSP | 0.215
88 | VADDIWEELLAEDL | 2.64
89 | PEFPGIELQELQELQALLQQ | -0.0979
90 | MLSSHGFSVDTSALLDLPSP | < -0.25
91 | MLSSHGFSVDTSPLLDLFSP | -0.191
92 | LFDGDFLFGNDFA | 1.7
93 | PMDDVYNYLFDD | 1.41
94 | PEKPGIELQELQELQALLQQ | -0.204
95 | ERDDEFSLWDSML | 0.267
96 | PEPPGIELQELQELQALLQQ | < -0.25

Row | Sequence | growth estimate
97 | PFPDPQDDFLKWWRSEEAQ | -0.0255
98 | PFPDTQDDFLKWWRSEGAQ | -0.0427
99 | ADDDEFSLWDSML | 1.96
100 | PFPDTQDPFLKWWRSEEAQ | < -0.25
101 | DELSWIIELLERDG | 1.05
102 | DFDLDMLGDADLDMLG | 5.13
103 | LFDYDPLFGNDFA | 0.326
104 | TMDDVYNYLFKD | < -0.25
105 | EDLYSILWPDVY | 1.01
106 | PFPDTQDDFLKWWRSERAQ | < -0.25
107 | MLSSHGFSVDTSALLDLFSK | -0.245
108 | PFDYDFLFGNDFA | 2.14
109 | TMDDVYNPLFDD | < -0.25
110 | EDDAEFSLWDSML | 0.0227
111 | DFDLDMLGDFPLDMLG | 1.65
112 | EFNDGLDLDFILSN | -0.0825
113 | KELSWIIELLEKDG | -0.245
114 | QQNGEIARLWDFN | -0.234
115 | DLDESWDYIFETPE | 0.951
116 | LFDYPFLFGNDFA | 1.53
117 | QQNGEIAQLWDRN | -0.121
118 | MPSSHGFSVDTSALLDLFSP | 0.171
119 | DALSWIIELLEKDG | < -0.25
120 | PRFPGIELQELQELQALLQQ | < -0.25

Row | Sequence | growth estimate
121 | QQNGEIAQAWDFN | < -0.25
122 | DFDLDMLPDFDLDMLG | 0.485
123 | MLSSHGFSVDRSALLDLFSP | -0.204
124 | DFALDMLGDFDLDMLG | 3.21
125 | QKNGEIAQLWDFN | < -0.25
126 | MLSSHGFSVDTSALLDLFSA | -0.127
127 | PFPDTQKDFLKWWRSEEAQ | < -0.25
128 | DELSWIIELLEKPG | 0.0373
129 | DFDLDMLGDFRLDMLG | 0.535
130 | VADDIPEELLSEDL | -0.228
131 | PFPDTQDDFLKWWKSEEAQ | -0.186
132 | MLSSHGFSVDTSALRDLFSP | -0.196
133 | MLSSHAFSVDTSALLDLFSP | -0.157
134 | LGDYDFLFGNDFA | 2.6
135 | LFDYKFLFGNDFA | 0.0164
136 | PEFPGRELQELQELQALLQQ | < -0.25
137 | EDDDEFGLWDSML | 0.402
138 | VADPIWEELLSEDL | 0.903
139 | DELSWIIELLEKKG | < -0.25
140 | DFDLKMLGDFDLDMLG | 3.04
141 | QGNGEIAQLWDFN | < -0.25

Reference: the supplement of paper PMC5949888
